The record followed here is patent US20260035464A1 (STAIDSON BIOPHARMA, published 2026).

Assay [1] addresses T1, extracellular domain of human BTLA with FAS, expressed on Jurkat cells (human, UniProt Q7Z6A9 31-157; P25445 174-335, limits assumed).
T1 sequence (looked up): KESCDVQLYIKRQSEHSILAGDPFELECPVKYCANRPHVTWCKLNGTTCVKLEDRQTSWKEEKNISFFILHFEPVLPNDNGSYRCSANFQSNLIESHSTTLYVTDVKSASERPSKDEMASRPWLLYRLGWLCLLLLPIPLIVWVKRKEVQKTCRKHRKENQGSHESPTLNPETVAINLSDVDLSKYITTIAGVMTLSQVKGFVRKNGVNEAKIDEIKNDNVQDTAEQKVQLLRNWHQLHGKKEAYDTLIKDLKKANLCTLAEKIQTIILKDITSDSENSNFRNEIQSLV
In words: cell-based or functional assay.

The target of assay [2] is T2, human BTLA (Uniprot Q7Z6A9) expressed on cells (human, UniProt Q7Z6A9 31-289).
T2 construct: whole, on cells; also called huBTLA-overexpressing Expi293 cells
Briefly: flow cytometry on huBTLA-overexpressing Expi293 cells, MFI. As for the experimental part: Expi293 cells stably overexpressing huBTLA were incubated with the chimeric anti-BTLA antibodies 83F2 or 86B7 in PBS containing 0.5% BSA, 1 mM EDTA, and 0.1% sodium azide (FACS buffer) for 30 minutes at 4° C. The cells were washed, and then incubated with 10 nM phycoerythrin (PE) conjugated anti-Human Fc Ab (BioLegend, cat #409304) for 20 minutes at 4° C. Cells were washed and then analyzed by flow cytometry with Attune (ThermoFisher Scientific). Data were analyzed with FlowJo software. Antibody binding is represented as median fluorescence intensity (MFI).
FACS based binding assays of humanized anti-BTLA antibodies were performed as described above in Example 3.
(Flow cytometry measures light scatter and fluorescence of single cells or particles in a stream.)

Assay [3] has as its target T3, human BTLA extracellular domain with C-terminal mouse IgG2a Fc tag (human; mouse, UniProt Q7Z6A9 31-157).
T3 construct: also called huBTLA with mIgG2a Fc tag; not shown: mouse IgG2a Fc, C-terminal
T3 sequence: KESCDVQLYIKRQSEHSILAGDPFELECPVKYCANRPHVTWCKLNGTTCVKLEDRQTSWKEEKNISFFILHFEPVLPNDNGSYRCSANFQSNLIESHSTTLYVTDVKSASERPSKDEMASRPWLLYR
Briefly: blocking ELISA, huBTLA-mIgG2a Fc coated; competitor huHVEM-His (2 ug/ml). As for the experimental part:
HVEM blocking by purified recombinant chimeric antibodies by ELISA: Human HVEM (huHVEM) blocking ELISA was performed on purified recombinant chimeric anti-BTLA antibodies. Briefly, 384-well, clear flat bottom high binding plates (Corning, cat #3700) were coated overnight at 4° C. with 0.333 μg/mL purified huBTLA with mIgG2a Fc tag in PBS (coating solution). After removing the coating solution, the plates were blocked by adding blocking buffer and incubated at 37° C. for 1 hour. Plates were then washed 3 times with wash buffer. Serial dilution of purified chimeric antibodies in PBS were added to individual well followed by incubation at 37° C. for 1 hour. Plates were washed 3 times with wash buffer. Then 30 μL per well of 2 μg/ml human HVEM with His tag (Sino Biological, cat #10334-H08H) in assay buffer was added into the reaction and incubated for 1 hour. Plates were washed 3 times with wash buffer. Then 30 μL per well of mouse anti-his-AP (Southern Biotech, cat: 4603-04) at 1:500 dilution in ELISA diluent was added, and incubated at 37° C. for 30 min, then the plates were washed 5 times with wash buffer and developed for 30 minutes with 30 μL per well of pNPP substrate. Plates were analyzed with a Bio-TEK at 405 nm. The blocking IC₅₀ value represents the antibody concentration that inhibited 50% of huHVEM binding to coated human BTLA.

Assay [4] concerns the target T4, rhesus monkey BTLA extracellular domain protein with His tag (Sino Biological, cat #90250-C08H) (rhesus monkey, UniProt G7MKA9 31-157).
T4 construct: extracellular domain; Bought protein; also called His-tag-rhesus monkey BTLA; not shown: His tag
T4 sequence: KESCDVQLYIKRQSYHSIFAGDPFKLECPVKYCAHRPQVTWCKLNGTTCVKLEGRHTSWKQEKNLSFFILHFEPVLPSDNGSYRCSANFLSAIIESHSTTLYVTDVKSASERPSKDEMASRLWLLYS
In words: ELISA, rhesus monkey BTLA coated at 0.333 ug/mL, anti-human IgG Fc-AP detection. On the procedure:
(§1) BTLA binding of purified recombinant chimeric antibodies by ELISA: The huBTLA and rhesus monkey BTLA antigen binding ELISA was performed on the purified recombinant chimeric antibodies. Briefly, 384-well, clear flat bottom high binding plates (Corning, cat #3700) were coated overnight at 4° C. with 0.333 μg/mL of huBTLA or rhesus monkey BTLA in PBS. The following purified process was performed as described in ELISA binding assay in Example 2, except that the secondary antibody was goat anti human IgG Fc-AP (Southern Biotech, cat #2014-04).
In general terms: In an ELISA, binding on a coated surface is turned into a signal by an enzyme label.

In assay [5] the target is T5, huBTLA as coated in the binding ELISA of Example 3 (tag not stated) (human, UniProt Q7Z6A9 31-157).
T5 construct: Detection was with anti-human IgG Fc
T5 sequence: T3 sequence
Briefly: ELISA, plate coated with huBTLA, detection with goat anti-human IgG Fc-AP, OD405. As for the experimental part: as §1

For assay [6], the target named is T4, rhesus monkey BTLA extracellular domain …. In words: ELISA, plate coated with rhesus monkey BTLA, detection with goat anti-human IgG Fc-AP, OD405. As for the experimental part:
as §1

Assay [7] has as its target T2, human BTLA (Uniprot Q7Z6A9) expressed …. In words: flow cytometry blocking on huBTLA-overexpressing Expi293 cells; competitor human HVEM-mouse IgG2a Fc. As for the experimental part:
(§2) Expi293 cells stably overexpressing huBTLA were incubated with chimeric anti-BTLA antibody 83F2 or 86B7 for 30 minutes at 4° C. The cells were washed, and then incubated with human HVEM-mouse IgG2a Fc recombinant protein (Acro Biosystems, cat #HVM-H5255) at […] concentration for 20 minutes at 4° C. The human HVEM bindings were detected by goat anti-mouse Alexa 488 secondary antibody (ThermoFisher, cat #A-11029). Cells were washed and acquired by flow cytometry with Attune. Data were analyzed with FlowJo software. BTLA binding is represented as MFI.

Assay [8] shares this target. Briefly: flow cytometry blocking assay on huBTLA-overexpressing Expi293 cells, antibody titrated, soluble human HVEM-mouse IgG2a Fc detected. On the procedure: as §2
FACS based blocking assays of humanized anti-BTLA antibodies were performed as described above in Example 3.

B1: chimeric anti-BTLA antibody 86B7 (antibody, V domains shown)
VH: QVTLKESGPGILQPSQTLSLTCSFSGFSLSTFGMGVSWIRQPSGKGLEWLAHIYWDDDKRFNPSLKSRLSISKDTSNNQVFLKITTVDTADTATYYCARGNWDGETYFDYWGQGTTLTVSS
VL: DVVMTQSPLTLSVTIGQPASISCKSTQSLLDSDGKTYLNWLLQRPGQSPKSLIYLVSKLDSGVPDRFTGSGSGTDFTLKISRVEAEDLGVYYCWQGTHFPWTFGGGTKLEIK
Consider B1, for which, in assay [1], the “EC50 of inhibition of huHVEM-Fc-induced apoptosis, Jurkat-huBTLA-FAS cells (ATP luminescence)” value was 0.109 nM. The results for the “EC50 (read off the curve)” value in assay [2], in assay [5] and in assay [6] were approximately 0.8 nM, approximately 0.4 nM and approximately 0.4 nM, respectively. The results for the IC50 in assay [3] and in assay [7] were 1.02 nM and 0.259 nM, respectively. Besides, the EC50 – broadly, the midpoint of the concentration-response curve – in assay [4] was 0.0559 nM. In addition, the “IC50 (read off the curve)” value in assay [8] was approximately 0.4 nM.
